Source: patent US7666414B2, “Methods for treating prostate cancer using modified antibodies to prostate-specific membrane antigen” (Cornell Research Foundation, Inc., priority 2001, dated 2010)
pIC50: −log10 of the molar value. Where two headings read alike, the source gives them in different places.

Key:
[1] = system: metastatic androgen-independent prostate cancer; assay: Phase 1 dose-escalating trial of DM1 conjugated deJ591; format: in vivo, human
Protocol: Based upon emerging clinical safety and PK, repeat dosing at four week intervals was subsequently permitted.
DLT is defined as the occurrence of one or more of the following:
• Grade 4 thrombocytopenia (platelet count <10,000/mm3) • Requirement for platelet transfusion and/or other methods to increase platelet count • Febrile neutropenia (ANC <1000/mm^3 concurrent with a temperature >38.5° C.). (Per the Infection/Febrile Neutropenia subsection of the NCI CTC version 2.0, febrile neutropenia is, by definition, a >Grade 3 toxicity) • Grade 4 neutropenia without fever of >7 days duration • Grade 3 neutropenia requiring granulocyte colony-stimulating factor (G-CSF) administration • Grade 4 anemia (hemoglobin <6.5 g/dL) • Grade 3 anemia (hemoglobin 6.5-<8.0 g/dL) in a subject receiving EpogenÒNon-hematologic • Any Grade 3 non-hematologic toxicity considered by the investigator to be possibly related to study drug MTD is defined as the highest dose level with an observed incidence of DLT in no more than 1 out of 6 subjects.
There will be a 4 week (28 days±2 days) interval between dose administrations. […] Subjects will receive the same dose administered on day 1 (Visit 1) of their first infusion.
The starting dose is 18 mg/m2. Subjects will be followed for 3 weeks after the first dose to determine dose escalation. Dose escalation will continue until DLT and MTD are determined. Two phases of dose escalation will be used. In the first phase, one subject will be enrolled at each dose level. In the second phase, three subjects will be enrolled at each dose level. The planned dose increments are 80%, 60%, 40%, 30%, 30%, 30%, 30%, 30% and 30% above the previous dose, with a total of ten dose levels planned. All dose increments will be adjusted to 30% above the previous dose if DLT or two or more occurrences of non dose-limiting grade 2 or greater drug-related toxicity (NDLT) are observed in subjects treated at any of the first three dose levels. Non dose-limiting grade 2 or greater toxicity includes grade 2 or 3 hematologic toxicity and grade 2 non-hematologic toxicity. Drug-related toxicity is toxicity considered by the investigator to be related to study drug. In the first phase, one subject will be enrolled at the lowest dose level and observed for 3 weeks to ensure that there are no significant adverse events. If no DLT or NDLT is observed during the 3 week observation period, dose escalation will continue and a new subject will be enrolled at the next predefined dose level. Single subjects will continue to be enrolled and observed at sequentially increasing dose levels until one subject experiences a DLT or a NDLT. If DLT is observed in a single subject at any dose level in the first phase, the second phase will begin, where 3 subjects per dose level will be enrolled. The dose assignment for the first subject enrolled in the second phase will be one dose level lower than the dose level at which DLT is observed. If NDLT is observed in the subject treated at any of the first three dose levels, dose escalation will stop and two more subjects will be enrolled at the current dose level. Subsequent dose escalation and enrollment will be determined by the number and grade of toxicities observed in these two additional subjects. If DLT or NDLT is not observed, the first phase will continue. Dose escalation will proceed to the next predefined dose level, with one subject enrolled at that dose level. If DLT is observed in one subject, three subjects will be enrolled at the current dose level and the second phase will begin. The dose increments for subsequent dose escalations will be 30% for the remainder of the study. If DLT is observed in both subjects, dose escalation will stop and three subjects will be enrolled at the previous dose level, marking the beginning of the second phase. The previous dose level will be evaluated as potential MTD. No further dose escalation will occur. […]

[2] = system: PSMA-negative cells; conditions: read-out: Non-specific in vitro cytotoxicity towards PSMA-negative cells, IC50

deJ591-DM1: deJ591 conjugated via SPP disulfide linker to the maytansinoid DM1, DM1/antibody ratio about 3.5
tolerability ([1]; 18 to 343 mg/m^2): well-tolerated in the majority of patients | MTD ([1]; 23 patients, 18 to 343 mg/m^2): ≥ 343 mg/m^2 | DLT ([1]; highest dose level 343 mg/m^2): Only one DLT, an uncomplicated febrile neutropenia | PK of antibody related analytes (J591-DM1, Total J591 and free J591) ([1]; in vivo): typical of monoclonal antibodies | Plasma levels of DM1-SH ([1]; in vivo): detectable | anti-antibodies ([1]; in vivo): No anti-antibodies against DM1 conjugated deJ591, deJ591 or DM1 were detected | disease response ([1]; one patient, 264 mg/m^2): PR by RECIST criteria | durable decrease in PSA ([1]; one patient, 264 mg/m^2): 70% | sustained PSA decline ([1]; one patient, 343 mg/m^2): > 50% | pIC50 ([2]; listed as 1552-60S): 7.87 | pIC50 ([2]; listed as N067020302): 7.77
